Results as given in PMC2734569, “Functional mapping of the fission yeast DNA polymerase δ B-subunit Cdc1 by site-directed and random pentapeptide insertion mutagenesis” (BMC Molecular Biology, 2009).

Columns and labels:
Assay in all cases: two-hybrid; LexA-Cdc1 bait (pBTM116 or pBTM116BN) with Gal4-Pol3 prey and co-expressed c-myc-tagged Cdc27 (pAA-Cdc27) in S. cerevisiae CTY10-5d; ONPG liquid culture beta-galactosidase assay, mean of triplicates, as percent of wild-type Cdc1
Conditions in all cases: partners not purified
Cdc1-A9 = target: T1, Cdc1-A9 (Schizosaccharomyces pombe, UniProt P87324 1-462, Pro292Ala | Gly293Ala)
T1 construct: Cdc1, S. pombe, double point mutant (A1 and A2 combined); source: yeast two-hybrid fusion, in S. cerevisiae CTY10-5d
T1 sequence (looked up): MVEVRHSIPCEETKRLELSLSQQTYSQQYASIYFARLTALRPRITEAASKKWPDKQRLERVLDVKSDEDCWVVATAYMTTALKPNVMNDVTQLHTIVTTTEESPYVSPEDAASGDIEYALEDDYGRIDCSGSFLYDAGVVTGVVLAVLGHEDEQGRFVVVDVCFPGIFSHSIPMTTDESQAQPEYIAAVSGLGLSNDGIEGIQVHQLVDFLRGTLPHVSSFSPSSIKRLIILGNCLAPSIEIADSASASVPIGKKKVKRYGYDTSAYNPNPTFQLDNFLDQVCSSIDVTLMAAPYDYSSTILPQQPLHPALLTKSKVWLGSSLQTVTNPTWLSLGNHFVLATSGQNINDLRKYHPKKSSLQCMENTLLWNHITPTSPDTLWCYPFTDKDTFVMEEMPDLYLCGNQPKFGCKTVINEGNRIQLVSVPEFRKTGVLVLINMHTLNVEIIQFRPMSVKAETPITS

Cdc1-A5 = target: T2, Cdc1-A5 (Schizosaccharomyces pombe, UniProt P87324 1-462, Asn328Ala)
T2 construct: Cdc1, S. pombe, point mutant; source: yeast two-hybrid fusion, in S. cerevisiae CTY10-5d
T2 sequence (looked up): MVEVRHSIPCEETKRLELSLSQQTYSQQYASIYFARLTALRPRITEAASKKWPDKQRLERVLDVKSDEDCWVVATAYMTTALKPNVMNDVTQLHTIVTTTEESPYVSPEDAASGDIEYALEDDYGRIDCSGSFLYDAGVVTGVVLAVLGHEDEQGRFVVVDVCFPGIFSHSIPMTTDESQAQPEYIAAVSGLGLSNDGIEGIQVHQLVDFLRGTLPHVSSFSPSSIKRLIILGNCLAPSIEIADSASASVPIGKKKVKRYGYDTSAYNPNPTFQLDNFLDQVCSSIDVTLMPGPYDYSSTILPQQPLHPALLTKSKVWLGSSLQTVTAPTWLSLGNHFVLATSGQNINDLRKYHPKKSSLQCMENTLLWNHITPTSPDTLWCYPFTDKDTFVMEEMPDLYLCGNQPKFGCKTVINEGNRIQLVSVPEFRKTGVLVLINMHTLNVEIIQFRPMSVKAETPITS

Cdc1-J7 = target: T3, Cdc1-J7 (Schizosaccharomyces pombe, UniProt P87324 1-462, Met-GlyValProLeuMet-Glu)
T3 construct: Cdc1, S. pombe, with a pentapeptide inserted after residue 393; source: yeast two-hybrid fusion, in S. cerevisiae CTY10-5d
T3 sequence (looked up): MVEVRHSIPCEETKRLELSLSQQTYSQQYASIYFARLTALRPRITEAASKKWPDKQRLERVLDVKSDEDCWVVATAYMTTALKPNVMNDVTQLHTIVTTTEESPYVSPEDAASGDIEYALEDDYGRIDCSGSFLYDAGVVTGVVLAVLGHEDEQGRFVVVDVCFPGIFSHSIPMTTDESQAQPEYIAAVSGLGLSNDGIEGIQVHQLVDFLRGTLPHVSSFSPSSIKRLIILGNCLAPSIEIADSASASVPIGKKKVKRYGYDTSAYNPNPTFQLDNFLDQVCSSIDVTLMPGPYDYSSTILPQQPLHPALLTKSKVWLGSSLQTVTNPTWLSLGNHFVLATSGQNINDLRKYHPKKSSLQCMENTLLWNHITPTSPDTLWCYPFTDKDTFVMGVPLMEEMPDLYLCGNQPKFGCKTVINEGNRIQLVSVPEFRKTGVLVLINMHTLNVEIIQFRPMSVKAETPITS

Cdc1-J3 = target: T4, Cdc1-J3 (Schizosaccharomyces pombe, UniProt P87324 1-462, Leu-GlyValProLeuLeu-Asp)
T4 construct: Cdc1, S. pombe, with a pentapeptide inserted after residue 62; also called E3; E8; source: yeast two-hybrid fusion, in S. cerevisiae CTY10-5d
T4 sequence (looked up): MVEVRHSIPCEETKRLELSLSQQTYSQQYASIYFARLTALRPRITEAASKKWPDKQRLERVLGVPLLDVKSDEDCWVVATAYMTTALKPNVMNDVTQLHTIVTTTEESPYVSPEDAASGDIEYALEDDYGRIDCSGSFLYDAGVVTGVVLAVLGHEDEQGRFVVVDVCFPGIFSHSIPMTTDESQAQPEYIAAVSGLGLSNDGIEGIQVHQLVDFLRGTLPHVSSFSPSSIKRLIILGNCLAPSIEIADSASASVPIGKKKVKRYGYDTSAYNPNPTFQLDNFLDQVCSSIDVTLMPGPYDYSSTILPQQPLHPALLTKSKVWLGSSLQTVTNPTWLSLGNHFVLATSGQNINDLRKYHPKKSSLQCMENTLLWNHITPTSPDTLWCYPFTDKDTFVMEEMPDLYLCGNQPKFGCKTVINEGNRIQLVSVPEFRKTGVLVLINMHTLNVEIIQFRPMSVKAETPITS

two-hybrid beta-galactosidase activity, % of wild-type Cdc1 (Cdc1-A9): < 1%
two-hybrid beta-galactosidase activity, % of wild-type Cdc1 (Cdc1-A5): 4%
two-hybrid beta-galactosidase activity, % of wild-type Cdc1 (Cdc1-J7): < 1%
two-hybrid beta-galactosidase activity, % of wild-type Cdc1 (Cdc1-J3): 54%
B1: Pol3 (fission yeast DNA polymerase delta catalytic subunit) (natural protein, Schizosaccharomyces pombe, UniProt P30316 1-1086, looked up)
chain: MTDRSSNEGVVLNKENYPFPRRNGSIHGEITDVKRRRLSERNGYGDKKGSSSKEKTSSFEDELAEYASQLDQDEIKSSKDQQWQRPALPAINPEKDDIYFQQIDSEEFTEGSVPSIRLFGVTDNGNSILVHVVGFLPYFYVKAPVGFRPEMLERFTQDLDATCNGGVIDHCIIEMKENLYGFQGNEKSPFIKIFTTNPRILSRARNVFERGEFNFEELFPVGVGVTTFESNTQYLLRFMIDCDVVGMNWIHLPASKYQFRYQNRVSNCQIEAWINYKDLISLPAEGQWSKMAPLRIMSFDIECAGRKGVFPDPSIDPVIQIASIVTQYGDSTPFVRNVFCVDTCSQIVGTQVYEFQNQAEMLSSWSKFVRDVDPDVLIGYNICNFDIPYLLDRAKSLRIHNFPLLGRIHNFFSVAKETTFSSKAYGTRESKTTSIPGRLQLDMLQVMQRDFKLRSYSLNAVCSQFLGEQKEDVHYSIITDLQNGTADSRRRLAIYCLKDAYLPQRLMDKLMCFVNYTEMARVTGVPFNFLLARGQQIKVISQLFRKALQHDLVVPNIRVNGTDEQYEGATVIEPIKGYYDTPIATLDFSSLYPSIMQAHNLCYTTLLDSNTAELLKLKQDVDYSVTPNGDYFVKPHVRKGLLPIILADLLNARKKAKADLKKETDPFKKAVLDGRQLALKVSANSVYGFTGATNGRLPCLAISSSVTSYGRQMIEKTKDVVEKRYRIENGYSHDAVVIYGDTDSVMVKFGVKTLPEAMKLGEEAANYVSDQFPNPIKLEFEKVYFPYLLISKKRYAGLFWTRTDTYDKMDSKGIETVRRDNCPLVSYVIDTALRKMLIDQDVEGAQLFTKKVISDLLQNKIDMSQLVITKALSKTDYAAKMAHVELAERMRKRDAGSAPAIGDRVAYVIIKGAQGDQFYMRSEDPIYVLENNIPIDAKYYLENQLSKPLLRIFEPILGEKASSLLHGDHTRTISMAAPSVGGIMKFAVKVETCLGCKAPIKKGKTALCENCLNRSAELYQRQVAQVNDLEVRFARLWTQCQRCQGSMHQDVICTSRDCPIFYMRIAEHKKLQQSVDLLKRFDEMSW
notes: DNA polymerase delta catalytic subunit Pol3, S. pombe; prey plasmid named pACT-Pol3 in the results and pGAD2F-Pol3 in the methods; also called Gal4-Pol3; pACT-Pol3; source: yeast two-hybrid fusion, in S. cerevisiae CTY10-5d
